Reference: ChEMBL document CHEMBL2074012, “Multidrug resistance protein (MRP) 1 and MRP3 attenuate cytotoxic and transactivating effects of the cyclopentenone prostaglandin, 15-deoxy-Delta(12,14)prostaglandin J2 in MCF7 breast cancer cells” (Biochemistry, 2003)

Key:
Type in all cases: functional, cell-based
[1] = substrate: CN(Cc1cnc2nc(N)nc(N)c2n1)c1ccc(C(=O)N[C@@H](CCC(=O)O)C(=O)O)cc1; assay: (§1) TP_TRANSPORTER: uptake in MRP3-expressing MCF7 cells
[2] = substrate: N[C@@H](CCC(=O)N[C@H](CSCCCCC/C=C/C=C1/C(=O)C=C[C@@H]1C/C=C\CCCC(=O)O)C(=O)NCC(=O)O)C(=O)O; assay: as §1
[3] = substrate: CN(Cc1cnc2nc(N)nc(N)c2n1)c1ccc(C(=O)N[C@@H](CCC(=O)O)C(=O)O)cc1; assay: (§2) TP_TRANSPORTER: uptake in MRP1-expressing MCF7 cells
[4] = substrate: N[C@@H](CCC(=O)N[C@H](CSCCCCC/C=C/C=C1/C(=O)C=C[C@@H]1C/C=C\CCCC(=O)O)C(=O)NCC(=O)O)C(=O)O; assay: as §2

Protein	Km [1]	Km [2]	Km [3]	Km [4]
Multidrug resistance associated protein (Homo sapiens), Q96QA9 (protein) MDALCGSGELGSKFWDSNLSVHTENPDLTPCFQNSLLAWVPCIYLWVALPCYLLYLRHHCRGYIILSHLSKLKMVLGVLLWCVSWADLFYSFHGLVHGRAPAPVFFVTPLVVGVTMLLATLLIQYERLQGVQSSGVLIIFWFLCVVCAIVPFRSKILLAKAEGEISDPFRFTTFYIHFALVLSALILACFREKPPFFSAKNVDPNPYPETSAGFLSRLFFWWFTKMAIYGYRHPLEEKDLWSLKEEDRSQMVVQQLLEAWRKQEKQTARHKASAAPGKNASGEDEVLLGARPRPRKPSFLKALLATFGSSFLISACFKLIQDLLSFINPQLLSILIRFISNPMAPSWWGFLVAGLMFLCSMMQSLILQHYYHYIFVTGVKFRTGIMGVIYRKALVITNSVKRASTVGEIVNLMSVDAQRFMDLAPFLNLLWSAPLQIILAIYFLWQNLGPSVLAGVAFMVLLIPLNGAVAVKMRAFQVKQMKLKDSRIKLMSEILNGIKVLKLYAWEPSFLKQVEGIRQGELQLLRTAAYLHTTTTFTWMCSPFLVTLITLWVYVYVDPNNVLDAEKAFVSVSLFNILRLPLNMLPQLISNLTQASVSLKRIQQFLSQEELDPQSVERKTISPGYAITIHSGTFTWAQDLPPTLHSLDIQVPKGALVAVVGPVGCGKSSLVSALLGEMEKLEGKVHMKGSVAYVPQQAWIQNCTLQENVLFGKALNPKRYQQTLEACALLADLEMLPGGDQTEIGEKGINLSGGQRQRVSLARAVYSDADIFLLDDPLSAVDSHVAKHIFDHVIGPEGVLAGKTRVLVTHGISFLPQTDFIIVLADGQVSEMGPYPALLQRNGSFANFLCNYAPDEDQGHLEDSWTALEGAEDKEALLIEDTLSNHTDLTDNDPVTYVVQKQFMRQLSALSSDGEGQGRPVPRRHLGPSEKVQVTEAKADGALTQEEKAAIGTVELSVFWDYAKAVGLCTTLAICLLYVGQSAAAIGANVWLSAWTNDAMADSRQNNTSLRLGVYAALGILQGFLVMLAAMAMAAGGIQAARVLHQALLHNKIRSPQSFFDTTPSGRILNCFSKDIYVVDEVLAPVILMLLNSFFNAISTLVVIMASTPLFTVVILPLAVLYTLVQRFYAATSRQLKRLESVSRSPIYSHFSETVTGASVIRAYNRSRDFEIISDTKVDANQRSCYPYIISNRWLSIGVEFVGNCVVLFAALFAVIGRSSLNPGLVGLSVSYSLQVTFALNWMIRMMSDLESNIVAVERVKEYSKTETEAPWVVEGSRPPEGWPPRGEVEFRNYSVRYRPGLDLVLRDLSLHVHGGEKVGIVGRTGAGKSSMTLCLFRILEAAKGEIRIDGLNVADIGDPILFSGTLRMNLDPFGSYSEEDIWWALELSHLHTFVSSQPAGLDFQCSEGGENLSVGQRQLVCLARALLRKSRILVLDEATAAIDLETDNLIQATIRTQFDTCTVLTIAHRLNTIMDYTRVLVLDKGVVAEFDSPANLIAARGIFYGMARDAGLA	910 µM	2.9 µM	–	–
Multidrug resistance-associated protein 1 (Homo sapiens) (protein) MALRGFCSADGSDPLWDWNVTWNTSNPDFTKCFQNTVLVWVPCFYLWACFPFYFLYLSRHDRGYIQMTPLNKTKTALGFLLWIVCWADLFYSFWERSRGIFLAPVFLVSPTLLGITMLLATFLIQLERRKGVQSSGIMLTFWLVALVCALAILRSKIMTALKEDAQVDLFRDITFYVYFSLLLIQLVLSCFSDRSPLFSETIHDPNPCPESSASFLSRITFWWITGLIVRGYRQPLEGSDLWSLNKEDTSEQVVPVLVKNWKKECAKTRKQPVKVVYSSKDPAQPKESSKVDANEEVEALIVKSPQKEWNPSLFKVLYKTFGPYFLMSFFFKAIHDLMMFSGPQILKLLIKFVNDTKAPDWQGYFYTVLLFVTACLQTLVLHQYFHICFVSGMRIKTAVIGAVYRKALVITNSARKSSTVGEIVNLMSVDAQRFMDLATYINMIWSAPLQVILALYLLWLNLGPSVLAGVAVMVLMVPVNAVMAMKTKTYQVAHMKSKDNRIKLMNEILNGIKVLKLYAWELAFKDKVLAIRQEELKVLKKSAYLSAVGTFTWVCTPFLVALCTFAVYVTIDENNILDAQTAFVSLALFNILRFPLNILPMVISSIVQASVSLKRLRIFLSHEELEPDSIERRPVKDGGGTNSITVRNATFTWARSDPPTLNGITFSIPEGALVAVVGQVGCGKSSLLSALLAEMDKVEGHVAIKGSVAYVPQQAWIQNDSLRENILFGCQLEEPYYRSVIQACALLPDLEILPSGDRTEIGEKGVNLSGGQKQRVSLARAVYSNADIYLFDDPLSAVDAHVGKHIFENVIGPKGMLKNKTRILVTHSMSYLPQVDVIIVMSGGKISEMGSYQELLARDGAFAEFLRTYASTEQEQDAEENGVTGVSGPGKEAKQMENGMLVTDSAGKQLQRQLSSSSSYSGDISRHHNSTAELQKAEAKKEETWKLMEADKAQTGQVKLSVYWDYMKAIGLFISFLSIFLFMCNHVSALASNYWLSLWTDDPIVNGTQEHTKVRLSVYGALGISQGIAVFGYSMAVSIGGILASRCLHVDLLHSILRSPMSFFERTPSGNLVNRFSKELDTVDSMIPEVIKMFMGSLFNVIGACIVILLATPIAAIIIPPLGLIYFFVQRFYVASSRQLKRLESVSRSPVYSHFNETLLGVSVIRAFEEQERFIHQSDLKVDENQKAYYPSIVANRWLAVRLECVGNCIVLFAALFAVISRHSLSAGLVGLSVSYSLQVTTYLNWLVRMSSEMETNIVAVERLKEYSETEKEAPWQIQETAPPSSWPQVGRVEFRNYCLRYREDLDFVLRHINVTINGGEKVGIVGRTGAGKSSLTLGLFRINESAEGEIIIDGINIAKIGLHDLRFKITIIPQDPVLFSGSLRMNLDPFSQYSDEEVWTSLELAHLKDFVSALPDKLDHECAEGGENLSVGQRQLVCLARALLRKTKILVLDEATAAVDLETDDLIQSTIRTQFEDCTVLTIAHRLNTIMDYTRVIVLDKGEIQEYGAPSDLLQQRGLFYSMAKDAGLV	–	–	930 µM	1.4 µM
